Usually koff stands for the first-order rate constant of dissociation. The kon is the second-order rate constant of association. A word on the EC50: it is the concentration at which the effect is half-maximal.

Here are results for 3 molecules from US20230048360A1 (EUREKA THERAPEUTICS, published 2023).

Assay [1] addresses T1, cell surface-bound human GPC3 on GPC3+ HepG2 cells (human, UniProt P51654 25-560, GPI anchor and heparin sulfate side chains, as the filing describes native GPC3).
T1 construct: Endogenous GPC3 of the HepG2 line; also called Glypican 3; native GPC3
In words: apparent Kd from FACS on GPC3+ HepG2 cells.
Method: (§1) APC-conjugated anti-His tag mouse antibody (R&D Systems) was added in a volume of 100 μl, a 20-fold dilution of 5% FBS in PBS and 0.05% NaN₃ and incubated for 1 hour at 4° C. in the dark, then washed twice with PBS. The cells were fixed in 3-fold dilution of fixation buffer (BioLegend) in PBS in a volume of 150 μl. As a separate control, HepG2 cells were also incubated with APC-conjugated anti-His tag mouse antibody (R&D Systems) in the absence of any L2K bispecific antibody.

Assay [2] deals with T2, biotinylated recombinant human GPC3(560) (human, biotin on the C-terminal BirA substrate peptide ; Biotin on a lysine of the C-terminal BirA substrate peptide, which is not in the letters.).
T2 construct: Made in E. coli BL21 (pET-27b) from inclusion bodies and biotinylated with BirA; also called bt-GPC3(560); soluble bt-GPC3(560) protein
In words: SPR, Biacore X100, single-cycle kinetics, bt-GPC3(560) captured on chip, 1:1 model. (Surface plasmon resonance follows binding to a sensor surface in real time, without labels.)
Method: All of the proteins used in the assay were diluted in HBS-E buffer prior to use. Briefly, 5-10 μg/ml of bt-GPC3₍₅₆₀₎ was immobilized onto a sensor chip pre-functionalized with CAPture Reagent and injected onto the flow cell. Affinity of the L2K bispecific antibodies for immobilized antigen was measured by injection of the various bispecific antibodies at 0.3-5 mg/ml with a 90 second association phase followed by a 90 second dissociation phase at a flow rate of 30 μl/min. At the end of each run, the surface of the sensor chip was regenerated using the reagents provided in the Biotin CAPture kit. Binding constants were determined by nonlinear regression analysis using a 1:1 binding model (BIACORE™ X-100 evaluation software, FIGS. 15A and 15B). The association-on-rate-kₒₙ, affinity constant-kₐ, dissociation constant-kd, and equilibrium dissociation constant-Kd were then calculated for each L2K clone (Table 14).

Assay [3] has as its target T1, cell surface-bound human GPC3 on GPC3+ …. The experiment in a line: FACS titration on GPC3+ HepG2 cells, anti-His detection.
Method: as §1

B1: GPC3A-37 L2K (bispecific antibody)
chain: QSVLTQPPSVSAAPGQRVTISCSGTRSNIGSDYVSWYQHLPGTAPKLLVYGDNLRPSGIPDRFSASKSGTSATLGITGLQTGDEADYYCGTWDYTLNGVVFGGGTKLTVLGSRGGGGSGGGGSGGGGSLEMAQVQLVESGGGLVQPGGSLRLSCAASGFTFSSYAMSWVRQAPGKGLEWVSVIYSGGSSTYYADSVKGRFTISRDNSKNTLYLQMNSLRAEDTAVYYCARTSYLNHGDYWGQGTLVTVSSTSGGGGSDVQLVQSGAEVKKPGASVKVSCKASGYTFTRYTMHWVRQAPGQGLEWIGYINPSRGYTNYADSVKGRFTITTDKSTSTAYMELSSLRSEDTATYYCARYYDDHYCLDYWGQGTTVTVSSGEGTSTGSGGSGGSGGADDIVLTQSPATLSLSPGERATLSCRASQSVSYMNWYQQKPGKAPKRWIYDTSKVASGVPARFSGSGSGTDYSLTINSLEAEDAATYYCQQWSSNPLTFGGGTKVEIKHHHHHH
notes: also called anti-CD3/anti-GPC3 BsAb
With B1, in assay [1], the Kd was 0.92 nM. In addition, in assay [2], the Kd is 5.1 nM, the koff was determined as 0.00289 s⁻¹ and the kon was 567000 M⁻¹ s⁻¹. A half-maximal effect in assay [3] (EC50) was put at 0.048 µg/mL.

B2: GPC3A-34 L2K (bispecific antibody)
chain: QPVLTQPPSASGTPGQRVTISCSGSSSNIGSNNVIWYQQLPGAAPKLLIYSNHRRPSGVPDRFSGSRSGTSASLAISGLQSEDEADYYCAAWDDSLDGYLFGTGTKVTVLGSRGGGGSGGGGSGGGGSLEMAQVQLQQWGAGLLKPSETLSLTCAVYGGSFSGYYWSWIRQPPGKGLEWIGEINHSGSTNYNPSLKSRVTISVDTSKNQFSLELSSVTAADTAVYYCARGYGGRFDYWGQGTLVTVSSTSGGGGSDVQLVQSGAEVKKPGASVKVSCKASGYTFTRYTMHWVRQAPGQGLEWIGYINPSRGYTNYADSVKGRFTITTDKSTSTAYMELSSLRSEDTATYYCARYYDDHYCLDYWGQGTTVTVSSGEGTSTGSGGSGGSGGADDIVLTQSPATLSLSPGERATLSCRASQSVSYMNWYQQKPGKAPKRWIYDTSKVASGVPARFSGSGSGTDYSLTINSLEAEDAATYYCQQWSSNPLTFGGGTKVEIKHHHHHH
notes: also called anti-GPC3xCD3 di-scFv derived from GPC3A-34
As to B2, in assay [1], the Kd worked out at 2 nM. For the same molecule, in assay [2], the Kd is 3.5 nM, the koff worked out at 0.0014 s⁻¹ and the kon was determined as 400000 M⁻¹ s⁻¹. For the same molecule, in assay [3], a half-maximal response (EC50) required 0.11 µg/mL.

B3: GPC3A-45 L2K (bispecific antibody)
chain: QSVLTQPPSVSGTPGQRVIISCPGSTSNIGTNTVNWYQQFPGTAPKLLIYSNNQRPSGVPDRFSGSKSGTSASLAISGLQSEDEADYYCAAWDDSLNGVVFGGGTKLTVLGSRGGGGSGGGGSGGGGSLEMAQMQLVQSGGGLVKPGGSLRLSCAASGFTFSDYYMSWIRQAPGKGLEWVSYISSSGSTIYYADSVKGRFTISRDNAKNSLYLQMNSLRAEDTAVYYCARASDLYGDWGQGTLVTVSSTSGGGGSDVQLVQSGAEVKKPGASVKVSCKASGYTFTRYTMHWVRQAPGQGLEWIGYINPSRGYTNYADSVKGRFTITTDKSTSTAYMELSSLRSEDTATYYCARYYDDHYCLDYWGQGTTVTVSSGEGTSTGSGGSGGSGGADDIVLTQSPATLSLSPGERATLSCRASQSVSYMNWYQQKPGKAPKRWIYDTSKVASGVPARFSGSGSGTDYSLTINSLEAEDAATYYCQQWSSNPLTFGGGTKVEIKHHHHHH
Regarding B3, the Kd in assay [1] was 2.4 nM. For the same molecule, in assay [2], the Kd was 3.5 nM, the koff was found to be 0.000455 s⁻¹ and the on-rate (kon) came out at 128000 M⁻¹ s⁻¹. Further, the concentration giving a half-maximal response (EC50) in assay [3] amounted to 0.12 µg/mL.
